{"source": "paper doi:10.1101/2025.06.04.657969", "about": "“Complex rheology of condensin in entangled DNA”", "binders": {"B1": {"name": "6-FAM 50-bp dsDNA (dsDNA)", "DNA 1": "GGATACGTAACAACGCTTATGCATCGCCGCCGCTACATCCCTGAGCTGAC", "DNA 2": "GTCAGCTCAGGGATGTAGCGGCGGCGATGCATAAGCGTTGTTACGTATCC"}}, "key": {"[1]": {"molecular_target": "T1, condensin hinge (Smc2/Smc4 hinge heterodimer) (Saccharomyces cerevisiae, UniProt P38989;Q12267 396-792;555-951)", "T1 sequence 1": "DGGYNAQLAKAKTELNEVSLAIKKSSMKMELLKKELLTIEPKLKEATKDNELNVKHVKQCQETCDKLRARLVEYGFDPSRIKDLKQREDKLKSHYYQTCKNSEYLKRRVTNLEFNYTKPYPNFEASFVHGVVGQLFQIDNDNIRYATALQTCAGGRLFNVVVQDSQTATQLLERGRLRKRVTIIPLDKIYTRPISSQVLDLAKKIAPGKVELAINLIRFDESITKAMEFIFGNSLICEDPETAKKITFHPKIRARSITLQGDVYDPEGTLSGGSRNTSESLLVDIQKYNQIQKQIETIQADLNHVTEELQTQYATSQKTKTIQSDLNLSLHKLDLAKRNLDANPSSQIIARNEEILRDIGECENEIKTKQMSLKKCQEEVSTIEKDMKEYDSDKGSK", "T1 sequence 2": "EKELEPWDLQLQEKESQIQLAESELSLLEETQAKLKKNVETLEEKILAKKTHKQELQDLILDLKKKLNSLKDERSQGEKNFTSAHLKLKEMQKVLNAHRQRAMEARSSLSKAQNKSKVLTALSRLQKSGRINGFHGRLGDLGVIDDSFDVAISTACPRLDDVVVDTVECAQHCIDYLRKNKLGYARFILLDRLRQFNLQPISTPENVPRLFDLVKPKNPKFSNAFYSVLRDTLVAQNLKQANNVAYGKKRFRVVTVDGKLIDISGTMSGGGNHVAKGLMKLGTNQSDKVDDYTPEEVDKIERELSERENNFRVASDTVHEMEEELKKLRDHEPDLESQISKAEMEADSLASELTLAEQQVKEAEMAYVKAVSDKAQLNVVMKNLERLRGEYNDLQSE", "experiment": "fluorescence polarization; 20 nM DNA; 5 mM MgCl2; EMSA: 50 mM Tris-HCl pH 7.5, 50 mM KCl, 125 mM NaCl, 5 mM MgCl2, 5% glycerol, 1 mM DTT, 10 min on ice, gel at 4 C; FP: 25 mM Tris-HCl pH 7.5, 100 mM NaCl, 5 mM", "conditions": "protein: recombinant; tags: N-terminal His6-TEV on Smc2; Smc4 untagged; copies: 1;1; label: 5' 6-FAM on strand 1; blunt"}, "[2]": {"molecular_target": "T1, condensin hinge (Smc2/Smc4 hinge …)", "experiment": "EMSA; 10 nM DNA; 5 mM MgCl2; Fig. 2c legend gives 0.2-0.3 uM and a 25 bp oligo; EMSA: 50 mM Tris-HCl pH 7.5, 50 mM KCl, 125 mM NaCl, 5 mM MgCl2, 5% glycerol, 1 mM DTT, 10 min on ice, gel at 4 C; FP: 25 mM Tris-HCl pH 7.5, 100 mM NaCl, 5 mM", "conditions": "protein: recombinant; tags: N-terminal His6-TEV on Smc2; Smc4 untagged; copies: 1;1; label: 5' 6-FAM on strand 1; blunt"}}, "data": [{"binder": "B1", "values": [{"measurement": "Kd", "setting": "[1]", "result": "~700", "unit": "nM"}, {"measurement": "Kd", "setting": "[2]", "result": "~141", "unit": "nM"}]}]}
